{"source": "paper PMC7925086", "molecular_target": "Leishmania RNA virus 1 isolate LRV1-4 major capsid protein (Leishmania RNA virus 1 (isolate LRV1-4, from Leishmania guyanensis strain M5313))", "assay": "cryo-EM structure; single-particle reconstruction of purified LRV1 virus-like particles, 0.16 mg/ml, in 20 mM sodium phosphate pH 7.4, 300 mM NaCl, 5 mM beta-mercaptoethanol; icosahedral symmetry; 3.65 Å", "data": [{"substance": "Leishmania RNA virus 1 isolate LRV1-4 major capsid protein (natural protein)", "values": [{"measurement": "stoichiometry N", "result": 120, "unit": "copies"}]}]}
